# Measured values from patent publication US20230381329A1, “Zwitterion Polymer-Drug Conjugates” (University of Utah Research Foundation, priority 2022, published 2023).
# Like-named read-outs stand apart in the source and are kept apart here.
# Key:
# [1] = molecular target: T1, Human calcitonin (hCT) (Homo sapiens, UniProt P01258); experiment: Calcitonin aggregation assay (transmittance at 540 nm, 37° C.); assay type: physicochemical; details: for time stabilized against aggregation: with 5 molar equivs CB[7]-PMet^CM80, with agitation, 37° C.; for time stabilized against aggregation / aggregation behavior alone: FIG. 5C; for aggregation behavior alone: without CB[7]-PMet^CM80, PBS pH 7.4, 37° C.; for stabilization against aggregation: with CB[7]-PMet^CM80, FIG. 5C
# T1 construct: made in house; host or cells: chemical peptide synthesis (on resin)
# T1 sequence (P01258 85-116): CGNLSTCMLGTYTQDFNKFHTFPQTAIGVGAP
# Experimental: Aggregation assay methods. Insulin aggregation assay. Insulin aggregation was assessed (Sluzky, V.; et al. Proc. Natl. Acad. Sci. U.S.A 1991, 88 (21), 9377-9381; and Webber, M. J.; et al. Proc. Natl. Acad. Sci. U.S.A 2016, 113 (50), 14189-14194). Insulin or calcitonin samples at pH 7.4 PBS and a final concentration of 1 mg/mL were prepared with and without the addition of 1.5 molar equivs of CB [7]-PMet. Samples were plated in a clear 96-well plate (Thermo Scientific Nunc) at a volume of 150 μL per well (n=5 wells/group) and sealed with an optically clear and thermally stable seal. The plate was immediately placed into a Tecan Infinite M200 plate reader and shaken continuously at 37° C. Absorbance readings at 540 nm were collected every 6 min the duration of the experiment as reported, and absorbance values were subsequently converted to transmittance.
# Calcitonin aggregation assay. hCT and analogs were dissolved in PBS buffer, pH 7.4 and centrifuged at 3000 rpm for 3 min. The supernatant concentration was determined by nanodrop (6=1615 M^−1cm^−1 at 280 nm). hCT and analogs were prepared at a final concentration of 0.5 mg/mL with and without 5 eq of PMet^CM80-CB[7]. Samples were plated at 150 μL per well in a clear 96-well plate (Fisher Scientific Nunc) and sealed with optically clear and thermally stable sealing tape (VWR). The plate was immediately placed into the plate reader at 37° C. Absorbance readings at 540 nm were collected every 6 min with 60 s shaking between reads for […]. Absorbance values were subsequently converted to transmittance.
# Aggregation assays. Peptide therapeutics were prepared (Meudom, R.; et al. Curr. Res. Chem. Biol. 2022, 2, 100013) and aggregation was assessed (Sluzky, V.; et al. Proc. Natl. Acad. Sci. U.S.A 1991, 88 (21), 9377-938; and Webber, M. J.; et al. Proc. Natl. Acad. Sci. U.S.A 2016, 113 (50), 14189-14194). Insulin or calcitonin solutions were prepared in PBS at pH 7.4 at a final concentration of 1 mg/mL, and with and without the addition of 1.5 molar equivs of CB [7]-PMet for rHu insulin and 5 molar equivs for hCT. Samples were plated in a clear 96-well plate (Thermo Scientific Nunc) at a volume of 150 μL per well (n=wells/group) and sealed with an optically clear and thermally stable seal. The plate was shaken continuously at 37° C. and absorbance readings at 540 nm were collected every 6 min the duration of the experiment as reported. Absorbance values were subsequently converted to transmittance.
# Next, the stabilizing effects of CB[7]-PMet^CM80 on other aggregation-prone proteins was assessed. Human calcitonin (hCT, FIG. 5A) was selected as a model protein therapeutic. Since hCT lacks a terminal Phe for host-guest complexation, the N-terminal amine was selectively modified on-resin with a benzylic amine group using reductive amination chemistry (FIG. 5B). To optimize binding, two spacer lengths between the terminal amine and the benzyl ring were examined comprising either one or two methylene units (hCT A1 and A2, respectively). Aggregation behavior over 40 h was examined using the methods described herein, and with or without CB[7]-PMet^CM80. […] However, addition of CB[7]-PMet^CM80 stabilized hCT A2 for at least 40 h with agitation, while hCT A1 was stabilized for ca. 34 h.
# [2] = molecular target: T2, recombinant human (rHu) insulin (Homo sapiens, UniProt P01308); experiment: Insulin aggregation assay (transmittance at 540 nm, continuous agitation at 37° C.); assay type: physicochemical
# T2 construct: Insulin is a 51-residue protein
# T2 sequence (P01308 25-54 limits assumed): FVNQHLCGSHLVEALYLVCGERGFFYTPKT
# T2 sequence (P01308 90-110 limits assumed): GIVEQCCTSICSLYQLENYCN
# Experimental: Insulin or calcitonin solutions were prepared in PBS at pH 7.4 at a final concentration of 1 mg/mL, and with and without the addition of 1.5 molar equivs of CB [7]-PMet for rHu insulin and 5 molar equivs for hCT. […] The plate was shaken continuously at 37° C. and absorbance readings at 540 nm were collected every 6 min the duration of the experiment as reported. Absorbance values were subsequently converted to transmittance. […]
# [3] = system: Chinese hamster ovary cells; details: cited from earlier work
# [4] = molecular target: T2, recombinant human (rHu) insulin; details: CB[7] alone, already shown; cited from earlier work
# [5] = mice, cited from earlier work
# [6] = molecular target: N-terminal phenylalanine residue on insulin (Homo sapiens, UniProt P01308); details: CB[7] macrocycle binding N-terminal phenylalanine of insulin; cited from earlier work
# N-terminal phenylalanine residue on insulin, sequence (P01308 25-54 limits assumed): as the sequence (P01308 25-54 limits assumed) above
substance,measurement,setting,value
hCT A1: benzyl-functionalized human calcitonin with one methylene spacer between the terminal amine and the benzyl ring,time stabilized against aggregation,[1],ca. 34 h
same,aggregation behavior alone,[1],rapid aggregation
"rHu insulin: recombinant human insulin, SEQ ID NO: 1 and SEQ ID NO: 2 chains",aggregation of rHu insulin alone,"[2]; no additive, continuous agitation at 37° C., within the first few hours",rapid aggregation
cucurbit[7]uril [CB[7]],IC50,[3],530 ± 20 µM
same,effect on rHu insulin stability,[4],no effect
same,tolerated dose,[5]; intravenous,up to 250 mg kg^−1
same,tolerated dose,[5]; oral,≤ 600 mg/kg
same,Ka,[6],1.5e+06 M⁻¹
"hCT: Human calcitonin, SEQ ID NO: 3, H2N-CGNLSTCMLGTYTQDFNKFHTFPQTAIGVGAP",stabilization against aggregation,[1],not stabilized
same,aggregation behavior alone,[1],rapid aggregation
hCT A2: benzyl-functionalized human calcitonin with two methylene spacers between the terminal amine and the benzyl ring,time stabilized against aggregation,[1],at least 40 h
same,stabilization against aggregation,[1],resistance to aggregation
same,aggregation behavior alone,[1],rapid aggregation
Poly-S-Carboxymethyl-L-Methionine Sulfonium Chloride Alkyne [PMetCM-Alk],inhibition of rHu insulin aggregation under continuous agitation,"[2]; 1 mg/mL insulin, PBS pH 7.4, 1.5 molar equivs additive, 37° C., 100 h, FIG. 3B",no inhibition
